Source: the nanobody polyreactivity screen of Harvey et al. (2022)

Experiment: yeast display, Sf9 membrane polyspecificity reagent, FACS + sequencing; frameworks hold sequencing errors
Outline: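 Genes from sorted yeast were amplified by colony PCR, read by MiSeq 2 × 250 sequencing and filtered on CDR length. These cells carried a synthetic nanobody library in Saccharomyces cerevisiae BJ5465 and were sorted by FACS into low and high (top ~1%) gates on anti-HA and streptavidin fluorescence. Polyreactivity is labelled according to the gate of origin.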

Sequence | polyreactivity (PSR sort gate)
QVQLVESGGGLLQAGGSLRLSCASSGRTFLVNAMGWYRQAPGKERELVAVITRVGSTNYADSVKGRFTISRDNAKNTVYLQMYSLKPEDTAVYYCAKQFSPYRSYGPVVRYDYWGQGTQLTVSS | low polyreactivity
QVQLVESGGGLVQAGGSLRLSCAASGRIFGRYAMGWYRQAPGKERELVATITSGGSTYYADSVKGRFTISRDNAKNTDYLQMNSLKPEDTAVYFCAAVHRGYFLAFYYWGQGTQVTVSS | high polyreactivity
QVQLVESGGGLVQAGGSLRLSCAASGSIFPWYTMGWYRQAPGKEREFVASISSSASDTYYADSVKGRFTISRDNAKNTVYLQMNSLKPEDTAVYYCAARAYYRYWHGNYRHYSFDYWGQGTQVTVSS | high polyreactivity
QVQLVESGGGLVQAGGSLRLSCAASGRIFGTYAMGWYRQAPGKERELVAAITRDGSTNYADSVKGRFTISRDNAKNTVYLQMYSLKTEDSAVYYCAAGYLPDPDDYDSWGQGTQVNVSS | low polyreactivity
QVQLVESGGGLVQAGGSLRLSCAASGSTSVDYTMGWYRQAPGKESELVAAIDYNGDSTYYADSVKGRFTISRDNAKITVYLQMNRLKPEDTAVYYCAADVWTLDPDEYDYWGQGTQVTLSS | low polyreactivity
QVQLVESGGGLVQAGGSLRLSCAASGRTFPSNVMGWYRQAPGKEREFVAAITTRGGNTRYADSVKGRFTISRDNAKNTVYLQMNSLKPEDTAVFYCAAKVKPGYDYWGQGTQVTVSS | low polyreactivity
QVQLVESGGGLVQAGGSLRLSCAASGSTSYTNAMGWYRQAPGKERELVAGITRSGDSTYYADSVKGRFTISRDNAKNTVYLQMNSLKPEDTAVYYCAAEYSGQYYSPVSYLYDYWGQGTQVTVSS | high polyreactivity
QVQLVESGGGLVQAGGSLRLSCAASGSLFYSYAMGWDRPAPGKERELVAAIRRDGSTNYADSVKGRFTISRDNAKNTVYLQMNSLKPEDTAVYYCNADGWNTYIGPRRYRYDYWGQGTQVTVSS | low polyreactivity
QVQLVESVGGLVQAGGSLRLSCAASGITFNEYAMGWYRQATGKARELVAAISRRGGSTYYADSVKGRFTISRDNAKNTVYLQMYSLKPEDTAVYYCAADPGTPRYQFLWYGYWGQGTQVTVSS | low polyreactivity
QVQLVESGGGLVQAGGSLRLSCAASGSTFYRNAMGWYRQAPGKEREFVAAITTDDSTYYADSVKGRFTISRDNAKNTVYVQMNSLKPEDTAVYYCAAGLEGKATWAAVGGYDYWGQGTQVTVSS | low polyreactivity
QVQLEDSGGGLVQAGGSLRLSCAASGLNLYRYAMGVYRQEPGKEREFVASISWSGGSTYYADSVKGRFTISRDNAKNTVYLQMNSLKPEDTAVYYCATDSDTSQLGYDYWGQGTQVTVAS | low polyreactivity
QVQIVESGGGLVQAGGSLRLSCAASGRTFGIYAMGWYRQAPGKERELVDAIRWRDGSTYYADSVKGRFTISRDNAKNTVYLQMTSLKPEDTAVYYCAATSRVYVRGSYWKYGYWGQGTQVTVSS | high polyreactivity
QVQLVESGGGLVQAGGSLRLSCAASGYTFGSNAMGWYRQAPGKERELVADIDWSSGNTYYADSVKGRFTISRDNAKNTVYVQMNSLKPEDTAVYYCAAELLIYYSWYWYDYWGQGTQVTVSS | high polyreactivity
QVQLVESGGGLVQAGGSLRLSCAASGRIFTGYAMGWYRQAPGKERELVAAITASGGNTYYADSVKGRFTISRDNAKNTVYLQMNSLKPEDTAVYYCAAGWYDQPDDYTSAYGVTKYGYWGQGTQVTVSS | low polyreactivity
QVQLVESGGGLVQAGGSLRLSCAASGITFGVYALGWSRQARGNERELVAAISVNGGSTYYADSVKGRYTISRDNAKNTVYLQMNSLKPEDTAVYYCAADVLYYIDDDSIIEYDYWGQGTQVTVSS | low polyreactivity
QVQLVESGGGLVQAVGSLRLSCAASGFIFGTYAMGWYRQAPGKERELVAVITRGGTTYYADSVKGRFTISRDNAKNTVYLQMNSLKPEDTAVYYCAADPWALFVGDEYYYWGQGTQVTVSS | low polyreactivity
QVQLVESGGGLVQAGGSLRLSCAASGLTFLVYAMGWYRQAPGKERELVAAITSIGDSTFYADSVKGRFTISRDNAKNTVYLQMNSLKPEDTAVYYCNADGPAGDIKFTLLDYDYWGQGTQVTVSS | low polyreactivity
QVQLVESGGGLVQAGGSLRLSCAASGSTYFRNAMGWYRQAPGKERELVADISASGGSTYYADSVKGRFTISRDNAKNTVYLQMNSLKPEDTAVYYCNALYIYFYNYLTIVYWGQGTQVTVSS | low polyreactivity
QVQLVESGGGLVQAGGSLRLSCAASGNTFEHYAMGWYRQAPGKERELVAAISYSGGSTYYADSVKGRFTISRDNAKNTVYLQMNSLKPEDTAVYYCNARGRASATGRRGRPDPFGYWGQGTQVTVSS | high polyreactivity
QVQLVESGGGLVQAGCSLRLSCAASGSNFYRNSMRWYRQAPGKERELVAGITTRGGSTYYADSVKGRFTISRDNAKNTVYLQMNSLKPEDTEVYYCNARSYTGSYFKYYYWGQGTQVTVSS | high polyreactivity
QVQLVESGGGLVQAGGSLRLSCAASGSTFRRYAMGWYRQAPGKERELVAAITGSGGRTYYADSVKGRFTISRDNAKNTVYLQMNSLIPVDTAVYYCAKEGTFTKGVRLFDYWGQGTQVTVSS | high polyreactivity
QVQLVQSGGGLVQAGGSLRLSCAASGSTFYLNAMGLYIQAPGKERELLAAITDAGSTNYADSVKGRFTISRDNAKNTVYLQMNSLKPEDTAVYYCNAEPRYYSGGHGYDYWGQGTQVTVSS | low polyreactivity

Sequence | polyreactivity (PSR sort gate)
QVQLVESGGGLVQAGGSLRLSCAASGRTFVKYAMGWYRQAPGKERELVAAISWSGGSTYYADSVKGRFTISRDKAKNTVYLQMNSLKPEDTAVYYCAAPSSRGQGRNFDYWGQGTQVTVSS | high polyreactivity
QVQLVESGGGLVQAGGSLRLSCAASGGTFVSYAMGWYRQAPGKERELVVAITYSGGSTYYADSVKGRFTISRDNAKNTVYLQMNRLKPEDTAVYYCAAPKFSYFSYSPRGKFKYEYWGQGTQVTVSS | low polyreactivity
QVQLVESGGGLVQAGGSLRLSCAASGSTFYDYAMGWYRQAPGKERELVASISISGGSTYADSVKGRFTISRDNAKNTVYLQMNSLKPEDTAVYYCNAKNYSWDDYYWVPDYEYWGQGTQVTVSS | low polyreactivity
QVQLVESGGGLVQAGGSLRLSCAASGFIFRYNTMGWYRQAPGKERELVATINRSGGSTYYADSVKGRFTISRDNAKNTVYLQMNSLKPEDTAVYYCAARSGTRWRSGYYYWGQGTHVTVSS | high polyreactivity
QVQLVESGGGLVPAGGSLRLSCAASGRTFYTNSMGWYRQAPGKERELVAAITYSGGSTYYADSVKWRFTISRDNAKNTVYLHMNSLKPEDTAVYYCAADYRAPLDYWGQGTQVTVSS | low polyreactivity
QVQLVESGGGLVQAGGSLRLSCAASGFIFSNNAMGWYRQAPGKERELVAAITSSGGRTYYADSVKGRFTISRDNAKNTVYLQMNSLKPEDTAVYYCAAVWRTSVWTKYGYWGQGTQVTVSS | high polyreactivity
QVQLVESGGGLVQAGGSLRLSCAASGRTFYYNAMGWYRQAPGKEREFVAAISYGGTTTYYADSVKGRFTISRDNAKNTVYLQMNSLKPEDTAVYYCAAGYTWRQSWYPFDYWGQGSQVTVSS | high polyreactivity
QVQLVESGGGLVQAGGSLRLSCAASGSIFVEYDMGWYIQAPGKERELVADISGTGNTYYADSVKGRFTISRDNAQNTVYLQMNSLKPEDTSVYYCAAGTYFTNYWSPFVWYDYWGQGTQVTVSS | high polyreactivity
QVQLVESGGGIVQAGGSLRLSCAASGRTLDKYTMGWYRQAPGKERELVASITSGGSTNYADSVKGRFTISRDNAKNTVYLQMNSLKPEDTAVYYCNKRRRVSKLGQGYDYWGQGTQVTVSS | low polyreactivity
QVQLVESAGGLVQAGGSLRLICAASVFTFYYYTMGWYRPAPGKERELVAGISGTGGSTYYADSVKGRFTISRDNAKNTVYLQMNSLKPEDTAVYYCAAGPWYWGQGTQVTVSS | low polyreactivity
QVHLVESGGGLVQAGGSLRLSCSASGIIFYVYTMGWYRQARGKERELVAAISGSGGSTTYADSVKGRFTISRDNAKNTVYLQMNSLKPEDTAVYYCNAKKWFYRWCKFSEFDYWGQGTQVTVSS | high polyreactivity
QVQLVESGGGLVQAGGSLRLSCAASGSTFVGNAMGCYRQAPVKERELVATISNSGGHTFYADSVKGRFTISRDNAKNTVYLQMNSLKPEDTAVFYCAASTSGAIRRDGYWGQGTQVTVSS | low polyreactivity
QVQLVESGGGLVQAGGSLRLSCAASGLIFGVNAMGWYRQAPGKERELVAVISRGGRTNYADSVKGRFTISRDNAKNTVYLQMNSLKPEDTAVYYCATYYTNKVPARYYWGQGTQVTVSS | high polyreactivity
QVQLVESGGGLVQAGGSLRLSCAASGFIFSSNAMGWYRQAPGKEREFVAAISFRGGTTYYADSVKRRFTISRDNAKNTVYLQLNSLKPEDTAVYYCNAVRWRSGRWWWYDYWGQGTQVTVSS | low polyreactivity
QVQLVESGGGLVQAGGSLRISSAASGFTFTPNAKGWYRQAPGKERELVAVITWNGGTTYYADSVKGRFTISRDNAQNTVYLQMNSLKPEDTAVYYCNADGLILYDYWGHGTQVTVSS | low polyreactivity
QVQLVESVGGLVQAGGSLRLSCAASGRTFAYTAMGWYRQARGKDREWLAAITWSGDSTYYADSVKGRFTISRDNAKNTVSLQKNSLKPEDTAVYYCAADYFGGPSYEFVYWGQGTQVTGSS | low polyreactivity
QVHLVESGGGLVQAGGSLRLSCAPSGFTFGYNAMGWYRQAPGKERELVAAISYRDGSTYYADSVKGRFTISRDTAKNTVYLQMNSLKPEDTAVYYCAAEVWYPGWGYDYWGQGTQVTVSS | high polyreactivity
QVQLVESGGGLVQAGGSLRLSCADSGSTFRRKVMGWYRQAPGKERELVASIRSGGTTNYADSVKGRFTISRDNAKNTVYLQMNSLKPEDTAVYYCAAARSRGYYRASAEVLYGYWGQGTQVTVSS | high polyreactivity
QVQLVESGGGLVQAGGSLRLSCAACGNTFYWNAMGLYRQAPGKERELVAAISTTGVSTYYADSVKGRFTISRDNAKNTVYLQMNSLKPEDTAVYYCAAEIIGYHTIYDYWGQGTQVTVSS | low polyreactivity
QVQLVESGGGLVQAGGSLRLSCAASGIIFYYYTMGWYRQAPGKETELVASITWSGGGSTYYADSVKGRFTISRDNAKNTVYLQMNSLKPEDTAVYYCNADEYYSYDYWGQGTQVTVSS | low polyreactivity
QVQLVESGGGLVQAGGSLRLSCAASGSIFYRNTMGWYRQAPGKERELVASINTGTGTYYADSVKGRFTISRDNAKNTVYLQMNSLKPEDTAVYYCNSKGWVWPFPSYYPYDSWGQGTQVTVSS | high polyreactivity
